This is an account of results in article PMC3306812 (Molecular Cell, 2012).

This assay has as its target full-length OTUB1 (human, UniProt Q96FW1 1-271). Nature of the assay: NMR titration.

full-length OTUB1, sequence (Q96FW1 whole entry): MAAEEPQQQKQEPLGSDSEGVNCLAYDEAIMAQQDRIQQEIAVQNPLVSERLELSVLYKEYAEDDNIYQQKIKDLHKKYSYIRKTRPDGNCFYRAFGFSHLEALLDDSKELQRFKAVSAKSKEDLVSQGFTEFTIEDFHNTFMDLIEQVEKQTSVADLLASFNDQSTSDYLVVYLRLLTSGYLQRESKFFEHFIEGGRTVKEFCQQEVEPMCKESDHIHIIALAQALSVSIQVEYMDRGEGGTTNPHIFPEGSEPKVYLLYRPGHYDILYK

B1: UBC13 (enzyme, UniProt P61088 1-152, looked up)
chain: MAGLPRRIIKETQRLLAEPVPGIKAEPDESNARYFHVVIAGPQDSPFEGGTFKLELFLPEEYPMAAPKVRFMTKIYHPNVDKLGRICLDILKDKWSPALQIRTVLLSIQALLSAPNPDDPLANDVAEQWKTNEAQAIETARAWTRLYAMNNI
On to B1, for which the binding result is given as “binds”.
